Measured values taken from patent US6642353B1, “Peptide ligands for the erythropoietin receptor” (Chugai Seiyaku Kabushiki Kaisha, priority 2000, dated 2003).
Positions of bridges follow the written chain, without caps; N, C: chain ends. Residues, ends and D or L forms follow the SMILES beside them.

T1: chimeric Ig-EPOR protein (human; murine, UniProt P19235 25-250)
T1 construct: extracellular domain; Secreted from COS-7 cells transfected with pcDNA3-IgG1-EPOR; major species about 59 kDa; also called IgG-EPOR; chimeric receptor; not shown: hinge region, CH2 and CH3 domains of the murine IgG1 heavy chain
T1 sequence (looked up): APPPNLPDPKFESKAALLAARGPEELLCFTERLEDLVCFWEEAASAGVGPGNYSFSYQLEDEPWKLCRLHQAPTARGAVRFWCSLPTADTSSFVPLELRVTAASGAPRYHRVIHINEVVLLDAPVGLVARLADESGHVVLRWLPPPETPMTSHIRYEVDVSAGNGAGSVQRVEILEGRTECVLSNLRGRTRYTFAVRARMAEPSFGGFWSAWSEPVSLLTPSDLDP


Molecular target: T1, chimeric Ig-EPOR protein
Test: phage ELISA, relative to ERB1
Settings: not given
Procedure: (§1) To better characterize the phage isolates having binding specificity for the EPOR, we compared the relative affinities of the binding clones presented in FIG. 4, using a phage ELISA procedure. Phage stocks of the binding clones were titered in triplicate to accurately determine the concentration of pfu/ml for each lysate. Different isolates were then assayed by ELISA using normalized phage concentrations so that all clones were tested using equivalent numbers of phage.

Molecule	relative affinity (Rel. Aff., ERB1 = 1.0)
NSDVTRRGWADHWREWNWDEYASTPTHPASHSSYLNPP (not shown: M13 phage pIII coat protein) [phage clone N5]	< 0.1
EWVYSRQSWGGQWKDGVRDEYTMTPGDPVANKYSLMTP (not shown: M13 phage pIII coat protein) [phage clone N6]	< 0.1
DVEVGRRACVGYCQEFLRDEYTATPSYPDKHSNYLNPP (not shown: M13 phage pIII coat protein) [phage clone N12]	< 0.1
ALDVGRWDGVGHCKGCLKDEYTTLDSKNNPQISQVSPT (not shown: M13 phage pIII coat protein) [phage clone N11]	< 0.1
DFEGSLREWDGDWPEWLRDEYARPSYPNPHKANQKPP (not shown: M13 phage pIII coat protein) [phage clone N10]	< 0.1
GLNICRPGWVGHCNDSLRDEYATNPRTPGPLSYNLQPT (not shown: M13 phage pIII coat protein) [phage clone N8]	< 0.1
DLNVGCPGYVGHCADWLGDEYPVHPNPEVPQTLNLKPH (not shown: M13 phage pIII coat protein) [phage clone N3]	< 0.1
SVDVCNQGGVGRCNDGLGDEYASKPSYQEAPRYNPNLR (not shown: M13 phage pIII coat protein) [phage clone N9]	< 0.1
DIAVCRGGCVGLCEEGLRDEYACNVKKPVPHSYKLNTP (not shown: M13 phage pIII coat protein) [phage clone N13]	< 0.1
ELDMLRGGGVGQSKESLRDEYDHKTSTPVPPNQKLPPP (not shown: M13 phage pIII coat protein) [phage clone N4]	< 0.1
RLEDGDEGRVWHSSDLLSDEYASTPSYPLTPNYYEYPP (not shown: M13 phage pIII coat protein) [phage clone N1]	< 0.1
EFVVWPRGWVGHCKGCRVDEYSGDPSNLEAQTHDMNFQ (not shown: M13 phage pIII coat protein) [phage clone N7]	< 0.1
GWAGCRSGGAGQCKEGAGDEYAENPSYPVPPRKHLNRL (not shown: M13 phage pIII coat protein) [phage clone N2]	< 0.1

Molecular target: T1, chimeric Ig-EPOR protein
Test: biopanning of the ERB1 evolved library with Ig-EPOR (FIG. 4)
Settings: not given
Procedure: The beads were washed three times in TBST (Tris buffered saline containing 0.1% (v/v) TWEEN® 20) and then suspended in 1 ml blocking medium (TBS SUPERBLOCK®). Phage in 100 μl aliquots containing about 1 ×10^10 plaque forming units (pfu) were added to the beads and the mixtures rotated gently for 2 hrs at room temperature. After washing the beads five times in TBST, phage were eluted with 300 μl of 50 mM glycine buffer (pH 2.2) for 10 min at room temperature. Eluted phage were immediately neutralized with 8 μl 2M Tris base that had not been pH-adjusted, mixed and stored at 4° C. Phage isolated by biopanning were amplified by mixing equal volumes of eluted phage and an overnight culture of E. coli strain JS5, diluting the mixture in 20 ml 2xYT containing tetracycline (12.0 μg/ml), and incubating overnight with shaking at 37° C. The resulting phage lysates were cleared of cell debris by centrifugation for 5 min in a microfuge, and 100 μl of the resulting supernatant lysate was used for a subsequent round of biopanning. All phage titering was carried out using JS5 bacteria plated on 2xYT top agar and agar plates.
Several random phage clones also were isolated from the evolved library, to represent non-binding clones.

Molecule	binding result
DVHECRPGWVGHCKDWLSDEYASNRRSPEPHRNYPIPP (not shown: M13 phage pIII coat protein) [phage clone B1]	binds
EGEVCLPGWVGHCKYWLMDEYANIPRNPTPRSNELKPP (not shown: M13 phage pIII coat protein) [phage clone B13]	binds
SLEPCRGGWVGHCNEWQRDEYAINPKWPNAPIEDPNPL (not shown: M13 phage pIII coat protein) [phage clone B6]	binds
DVEVCRGGWVGHCNAWLRDEYNRQPKKPVQQQVVYSTR (not shown: M13 phage pIII coat protein) [phage clone B16]	binds
DLEGCRLGWVGHCNVWGGDEYTKRTSHSVPPSHKSKLL (not shown: M13 phage pIII coat protein) [phage clone B19]	binds
YSDVCRRGWVGHCEDWLGDEYSSQPSYALPHSTSLNPR (not shown: M13 phage pIII coat protein) [phage clone B18]	binds
DLEVCRGGWVGHCKDWIWDEYARNPRYPDPQRKEVKSP (not shown: M13 phage pIII coat protein) [phage clone B10]	binds
AKVVCRNGWVGHCSAWLTDEYESNPNTRIPNTFDMKTP (not shown: M13 phage pIII coat protein) [phage clone B21]	binds
LLQMCSPGWVGHCNDWPRDEYANNPPNPVVDRQALTPP (not shown: M13 phage pIII coat protein) [phage clone B17]	binds
DFEDCQGGWVGHCNDWLGDEYARHPRYGATQTLSVNRH (not shown: M13 phage pIII coat protein) [phage clone B9]	binds
QVDTCTRGWVGHCNAWMGDEYAKTPGLPMPQSDYLKPR (not shown: M13 phage pIII coat protein) [phage clone B15]	binds
GKEVCRRGWVGHCQEWPMDEYTRNPSHPVPHNSRHKTP (not shown: M13 phage pIII coat protein) [phage clone B3]	binds
DLAGCRRGWVGHCSEWLRDEYTSNPRYPVAPSYRLQPP (not shown: M13 phage pIII coat protein) [phage clone B20]	binds

Molecular target: T1, chimeric Ig-EPOR protein
Test: phage ELISA with normalized phage concentrations
Settings: not given
Procedure: as §1

Molecule	fold affinity relative to the parent ERB1 clone [fold]
DVEACGGGWVGHCNYWLRDEYASKPIKQVPPGNHNQPS (not shown: M13 phage pIII coat protein) [phage clone B8]	~20
DREGCRRGWVGQCKAWFNDEYAKPPKKPFRNSYSLGPA (not shown: M13 phage pIII coat protein) [phage clone B7]	~20

Molecular target: T2, chimeric Ig-EPOR protein (Homo sapiens, UniProt P19235)
T2 construct: a fusion protein having domains corresponding to murine IgG1 and the extracellular domain (ECD) of the human EPOR; made in house; secreted into the medium
Test: peptide inhibition ELISA (binding of Ig-EPOR to EPO-coated plates)
Settings: not given
Procedure: The wells were washed three times with PBS containing 0.05% (v/v) TWEEN® 20 non-ionic detergent, and then blocked with 1% (w/v) BSA and 0.05% TWEEN® 20 in PBS (blocking buffer) to prevent non-specific binding. Excess blocking buffer was removed by washing once. Culture media was serially diluted in blocking buffer, and 50 μl from each dilution was added to the coated and blocked wells. Wells receiving undiluted media served as a control. A set of uncoated wells also received the diluted cell-free media. Plates were then incubated for 2 hours at room temperature, and washed three times as described above. After removing unbound chimeric receptor by washing, bound chimeric protein was assayed using 100 μl of the HRP labeled anti-murine IgG antibody, substantially as described above. Color development was initiated by addition of 100 μl of the TMB peroxidase substrate, and the extent of the peroxidase reaction measured spectrophotometrically at 450 nm and 650 nm, as described above.
Synthetic peptides having the sequences […] (SEQ ID NO:81), and […] (SEQ ID NO:82) were synthesized in the cyclic (disulfide-bonded) form using standard procedures (Peninsula Laboratories, Belmont, Calif.). The 18-mer peptide sequences were derived from the B7 and B8 clones, and the peptides are referred to herein as “ERB1-7” (SEQ ID NO:81) and “ERB1-8” (SEQ ID NO:82), respectively. The structures of the two purified peptides, each being greater than 95% pure as judged by HPLC, were confirmed by mass spectrometry. […] Such synthetic peptides are EPO mimetics.
Synthetic peptides corresponding to the sequence of ERB1-7, but missing either one, two, three or four N-terminal amino acids were tested in the peptide inhibition ELISA protocol. The following peptides were synthesized and tested substantially as described in Example 8: 18-mer peptide ERB1-7, consisting of […] (SEQ ID NO:81);

Molecule	IC50 [nM]
CC(C)[C@@H]1NC(=O)[C@H](Cc2c[nH]c3ccccc23)NC(=O)CNC(=O)[C@H](CCCNC(=N)N)NC(=O)[C@H](CCCNC(=N)N)NC(=O)[C@@H](NC(=O)CNC(=O)[C@H](CCC(=O)O)NC(=O)[C@H](CCCNC(=N)N)NC(=O)[C@@H](N)CC(=O)O)CSSC[C@@H](C(=O)N[C@@H](CCCCN)C(=O)N[C@@H](C)C(=O)N[C@@H](Cc2c[nH]c3ccccc23)C(=O)N[C@@H](Cc2ccccc2)C(=O)N[C@@H](CC(N)=O)C(=O)O)NC(=O)[C@H](CCC(N)=O)NC(=O)CNC1=O [ERB1-7] (H-DREGCRRGWVGQCKAWFN-OH; disulfide 5-13; N-terminus and C-terminus assumed)	~45
CC(C)C[C@H](NC(=O)[C@H](Cc1c[nH]c2ccccc12)NC(=O)[C@H](Cc1ccc(O)cc1)NC(=O)[C@H](CC(N)=O)NC(=O)[C@@H]1CSSC[C@H](NC(=O)[C@H](C)NC(=O)[C@H](CCC(=O)O)NC(=O)[C@@H](NC(=O)[C@@H](N)CC(=O)O)C(C)C)C(=O)NCC(=O)NCC(=O)NCC(=O)N[C@@H](Cc2c[nH]c3ccccc23)C(=O)N[C@@H](C(C)C)C(=O)NCC(=O)N[C@@H](Cc2c[nH]cn2)C(=O)N1)C(=O)N[C@@H](CCCNC(=N)N)C(=O)O [ERB1-8] (H-DVEACGGGWVGHCNYWLR-OH; disulfide 5-13; N-terminus and C-terminus assumed)	~45

Same assay, conditions: N-terminal truncations of ERB1-7

Molecule	EPOR binding activity
GCRRGWVGQCKAWFN [7N-3]	abolished EPOR binding activity
CRRGWVGQCKAWFN [7N-4]	abolished EPOR binding activity
